{"source": "patent US20240124607A1", "about": "(Merck Sharp & Dohme, published 2024)", "binders": {"B1": {"name": "ADI-27740 (antibody, V domains shown)", "VH": "QVQLQQWGAGLLKPSETLSLTCAVYGGSFSGYYWSWIRQPPGKGLEWIGEIDHSGSTNYNPSLKSRVTISVDTSKNQFSLKLSSVTAADTAVYYCARARGPWSFDPWGQGTLVTVSS", "VL": "DIQMTQSPSTLSASVGDRVTITCRASQSIGSWLAWYQQKPGKAPKLLIYKASSLESGVPSRFSGSGSGTEFTLTISSLQPDDFATYYCQQYHSFYTFGGGTKVEIK", "notes": "named as a single clone only on the drawing sheets; also called A40"}, "B2": {"name": "ADI-27743 (antibody, V domains shown)", "VH": "B1 VH", "VL": "not shown", "notes": "named as a single clone only on the drawing sheets"}, "B3": {"name": "AB0509 (antibody, V domains shown)", "VH": "QVQLVQSGGGLVQPGGSLRLSCAASGFTFTSYAMSWVRQAPGKGLEWVSAISGTGDSTFYADSVKGRFTFSRDNSKNTLYLQMNSLRAEDTAVYYCAKDLGWLQYGLFDYWGQGTLVTVSS", "VL": "DIQLTQSPATLSVSPGERATLSCRASQSVSSSYLAWYQQKPGQAPRLLIYGASSRATGIPDRFSGSGSGTDFTLTISRLEPEDFAVYYCQQYNNWPLTFGGGTKVEIK", "notes": "the scFv entries carry the stabilising cysteines, which the mAb may lack; also called mAb corresponding to AB0411"}}, "key": {"human NKG2D-Fc [1]": {"molecular_target": "T1, human NKG2D-Fc (human, UniProt P26718 73-216)", "T1 construct": "extracellular domain; also called recombinant human NKG2D-Fc; NKG2D-Fc-biotin", "T1 sequence (looked up)": "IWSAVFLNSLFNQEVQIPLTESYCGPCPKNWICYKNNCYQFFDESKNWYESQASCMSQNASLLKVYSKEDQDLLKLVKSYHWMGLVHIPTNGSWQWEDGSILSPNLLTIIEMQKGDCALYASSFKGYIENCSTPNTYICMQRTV", "assay": "ELISA on plate-adsorbed recombinant human NKG2D-Fc, anti-human kappa-HRP, OD 450 nm", "from_the_text": "(§1) The nucleic acid sequences of human, mouse or cynomolgus NKG2D ectodomains were fused with nucleic acid sequences encoding human IgG1 Fc domains and introduced into mammalian cells to be expressed. After purification, NKG2D-Fc fusion proteins were adsorbed to wells of microplates. After blocking the wells with bovine serum albumin to prevent non-specific binding, NKG2D-binding domains were titrated and added to the wells pre-adsorbed with NKG2D-Fc fusion proteins. Primary antibody binding was detected using a secondary antibody which was conjugated to horseradish peroxidase and specifically recognizes a human kappa light chain to avoid Fc cross-reactivity. 3,3′,5,5′-Tetramethylbenzidine (TMB), a substrate for horseradish peroxidase, was added to the wells to visualize the binding signal, whose absorbance was measured at 450 nm and corrected at […]. An NKG2D-binding domain clone, an isotype control or a positive control (comprising heavy chain and light chain variable domains selected from the group consisting of: SEQ ID NOs: 526-529, or anti-mouse NKG2D clones MI-6 and CX-5 available at eBioscience) was added to each well."}, "mouse NKG2D-Fc [2]": {"molecular_target": "T2, mouse NKG2D-Fc (mouse, UniProt O54709 90-232)", "T2 construct": "extracellular domain; also called Mouse NKG2D-Fc-biotin", "T2 sequence (looked up)": "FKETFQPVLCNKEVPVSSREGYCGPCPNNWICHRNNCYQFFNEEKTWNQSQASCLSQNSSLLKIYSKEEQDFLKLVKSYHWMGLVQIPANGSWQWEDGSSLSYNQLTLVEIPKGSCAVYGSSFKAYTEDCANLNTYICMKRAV", "assay": "ELISA on plate-adsorbed recombinant mouse NKG2D-Fc, anti-human kappa-HRP, OD 450 nm", "from_the_text": "as §1"}, "cynomolgus NKG2D-Fc": {"molecular_target": "T3, cynomolgus NKG2D-Fc (cynomolgus monkey, UniProt P61252 73-216)", "T3 construct": "extracellular domain", "T3 sequence (looked up)": "T1 sequence (looked up) with D43N, T133I", "assay": "ELISA on plate-adsorbed recombinant cynomolgus NKG2D-Fc, anti-human kappa-HRP, OD 450 nm", "from_the_text": "as §1"}, "human NKG2D-Fc [3]": {"molecular_target": "T1, human NKG2D-Fc", "assay": "competition ELISA on plate-adsorbed human NKG2D-Fc; blocked ligand ULBP-6-His-biotin", "method": "Recombinant human NKG2D-Fc proteins were adsorbed to wells of a microplate, and the wells were blocked with bovine serum albumin to reduce non-specific binding. A saturating concentration of ULBP-6-His-biotin was added to the wells, followed by addition of the NKG2D-binding domain clones. After a 2-hour incubation, wells were washed and ULBP-6-His-biotin that remained bound to the NKG2D-Fc coated wells was detected by streptavidin-conjugated to horseradish peroxidase and TMB substrate. Absorbance was measured at 450 nm and corrected at […]. After subtracting background, specific binding of NKG2D-binding domains to the NKG2D-Fc proteins was calculated from the percentage of ULBP-6-His-biotin that was blocked from binding to the NKG2D-Fc proteins in wells."}, "human NKG2D-Fc [4]": {"molecular_target": "T1, human NKG2D-Fc", "assay": "competition ELISA: human NKG2D-Fc-biotin binding to plate-adsorbed MICA-Fc is blocked", "method": "Recombinant human MICA-Fc proteins were adsorbed to wells of a microplate, and the wells were blocked with bovine serum albumin to reduce non-specific binding. NKG2D-Fc-biotin was added to wells followed by NKG2D-binding domains. After incubation and washing, NKG2D-Fc-biotin that remained bound to MICA-Fc coated wells was detected using streptavidin-HRP and TMB substrate. Absorbance was measured at 450 nm and corrected at […]. After subtracting background, specific binding of NKG2D-binding domains to the NKG2D-Fc proteins was calculated from the percentage of NKG2D-Fc-biotin that was blocked from binding to the MICA-Fc coated wells."}, "mouse NKG2D-Fc [5]": {"molecular_target": "T2, mouse NKG2D-Fc", "assay": "competition ELISA: mouse NKG2D-Fc-biotin binding to plate-adsorbed Rae-1delta-Fc is blocked", "method": "Recombinant mouse Rae-1delta-Fc (purchased from R&D Systems) was adsorbed to wells of a microplate, and the wells were blocked with bovine serum albumin to reduce non-specific binding. Mouse NKG2D-Fc-biotin was added to the wells followed by NKG2D-binding domains. After incubation and washing, NKG2D-Fc-biotin that remained bound to Rae-1delta-Fc coated wells was detected using streptavidin-HRP and TMB substrate. Absorbance was measured at 450 nm and corrected at […]. After subtracting background, specific binding of NKG2D-binding domains to the NKG2D-Fc proteins was calculated from the percentage of NKG2D-Fc-biotin that was blocked from binding to the Rae-1delta-Fc coated wells."}, "human CEACAM5 on cells [6]": {"molecular_target": "T4, human CEACAM5 on cells (human, UniProt P06731 35-685)", "T4 construct": "tumour cell lines with endogenous CEACAM5, or B16F10 engineered to express hCEACAM5; also called CEACAM5 on MKN-45, HPAF-II, SK-CO-1, LoVo, BxPC-3, Kato-III, LS-174T, ZR-75-30; hCEACAM5-B16F10", "T4 sequence": "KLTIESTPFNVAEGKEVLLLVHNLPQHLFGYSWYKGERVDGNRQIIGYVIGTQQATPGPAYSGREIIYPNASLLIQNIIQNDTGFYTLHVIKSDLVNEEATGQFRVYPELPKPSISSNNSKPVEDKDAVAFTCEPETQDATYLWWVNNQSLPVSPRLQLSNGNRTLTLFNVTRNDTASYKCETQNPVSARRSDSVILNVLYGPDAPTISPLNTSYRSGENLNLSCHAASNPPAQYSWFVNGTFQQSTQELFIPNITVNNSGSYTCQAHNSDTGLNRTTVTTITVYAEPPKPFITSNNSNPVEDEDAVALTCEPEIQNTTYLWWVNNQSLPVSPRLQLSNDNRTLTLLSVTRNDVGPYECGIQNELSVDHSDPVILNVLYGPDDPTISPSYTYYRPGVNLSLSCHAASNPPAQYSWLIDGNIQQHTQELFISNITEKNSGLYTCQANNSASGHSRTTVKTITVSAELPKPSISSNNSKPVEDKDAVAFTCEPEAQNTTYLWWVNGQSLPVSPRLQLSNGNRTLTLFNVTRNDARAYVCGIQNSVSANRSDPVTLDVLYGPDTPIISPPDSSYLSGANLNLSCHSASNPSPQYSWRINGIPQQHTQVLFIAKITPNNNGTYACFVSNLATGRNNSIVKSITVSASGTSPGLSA", "assay": "flow cytometry, LoVo cells"}, "human CEACAM5 on cells [7]": {"molecular_target": "T4, human CEACAM5 on cells", "assay": "flow cytometry, BxPC-3 cells"}, "human CEACAM5 on cells [8]": {"molecular_target": "T4, human CEACAM5 on cells", "assay": "flow cytometry, MKN-45 cells"}, "human CEACAM5 on cells [9]": {"molecular_target": "T4, human CEACAM5 on cells", "assay": "flow cytometry, SK-CO-1 cells"}, "human CEACAM5 on cells [10]": {"molecular_target": "T4, human CEACAM5 on cells", "assay": "flow cytometry, Kato-III cells"}, "human CEACAM5 on cells [11]": {"molecular_target": "T4, human CEACAM5 on cells", "assay": "flow cytometry, MKN-45 cells; MKN-45 cells"}}, "note": "Substitutions are numbered along the chain they refer to."}
{"binder": "B1", "values": [{"measurement": "EC50 (read off the curve)", "setting": "human NKG2D-Fc [1]", "value": "~0.3", "unit": "nM"}, {"measurement": "EC50 (read off the curve)", "setting": "mouse NKG2D-Fc [2]", "value": "~0.2", "unit": "nM"}, {"measurement": "EC50 (read off the curve)", "setting": "cynomolgus NKG2D-Fc", "value": "~0.3", "unit": "nM"}, {"measurement": "IC50 (read off the curve)", "setting": "human NKG2D-Fc [3]", "value": "~6", "unit": "nM"}]}
{"binder": "B2", "values": [{"measurement": "EC50 (read off the curve)", "setting": "human NKG2D-Fc [1]", "value": "~0.4", "unit": "nM"}, {"measurement": "EC50 (read off the curve)", "setting": "mouse NKG2D-Fc [2]", "value": "~0.2", "unit": "nM"}, {"measurement": "EC50 (read off the curve)", "setting": "cynomolgus NKG2D-Fc", "value": "~0.3", "unit": "nM"}, {"measurement": "IC50 (read off the curve)", "setting": "human NKG2D-Fc [3]", "value": "~3", "unit": "nM"}, {"measurement": "IC50 (read off the curve)", "setting": "human NKG2D-Fc [4]", "value": "~20", "unit": "nM"}, {"measurement": "IC50 (read off the curve)", "setting": "mouse NKG2D-Fc [5]", "value": "~20", "unit": "nM"}]}
{"binder": "B3", "values": [{"measurement": "EC50", "setting": "human CEACAM5 on cells [6]", "value": 3.25, "unit": "nM"}, {"measurement": "Max FOB", "setting": "human CEACAM5 on cells [6]", "value": 19, "unit": "fold over background"}, {"measurement": "EC50", "setting": "human CEACAM5 on cells [7]", "value": 4.28, "unit": "nM"}, {"measurement": "Max FOB", "setting": "human CEACAM5 on cells [7]", "value": 19, "unit": "fold over background"}, {"measurement": "Max FOB", "setting": "human CEACAM5 on cells [8]", "value": 107, "unit": "fold over background"}, {"measurement": "EC50", "setting": "human CEACAM5 on cells [9]", "value": 8.67, "unit": "nM"}, {"measurement": "Max FOB", "setting": "human CEACAM5 on cells [9]", "value": 37, "unit": "fold over background"}, {"measurement": "EC50", "setting": "human CEACAM5 on cells [10]", "value": 1.17, "unit": "nM"}, {"measurement": "Max FOB", "setting": "human CEACAM5 on cells [10]", "value": 5, "unit": "fold over background"}, {"measurement": "EC50", "setting": "human CEACAM5 on cells [11]", "value": "< 9.05", "unit": "nM"}]}
